# Data reported in patent publication US20160040149A1, “Compositions Having Dicamba Decarboxylase Activity and Methods of Use” (priority 2013, published 2016).
# Key:
# [1] = Saturation mutagenesis of SEQ ID NO:109: dicamba decarboxylation activity of point mutants (CO2 released), fold of backbone (Tables 7, 8, Megatable 1); settings: decarboxylation activity (CO2 released) of point mutant vs unmutated backbone protein; backbone SEQ ID NO: 109
# [2] = DNA shuffling libraries: 14CO2 capturing assay in 384-well format, fold activity of backbone (Megatable 2); settings: relative to backbone SEQ ID NO: 133 (DDEC0201)
Molecule,Fold Activity [1] [fold],Fold Activity [2] [fold]
"133 (protein, Dicamba decarboxylase variant) MAQGKVALEEHFAIPETLQDSAGFVPGDYWKELQHRLLDIQDTRLKLMDAHGIETMILSLAAPAVQAIPDRRKAIEIARRANDFLAEECAKRPDRFLAFAALPLQDPDAATEELQRCVNDLGFVGALVNGFSQEGDGQTPLYYDLPQYRPFWGEVEKLDVPFYLHPRNPLPQDSRIYDGHPWLLGPTWAFAQETAVHALRLMASGLFDEHPRLNIILGHMGEGLPYMMYRIDHRIAWVKLPPRYPAKRRFMDYFNENFHITTSGNFRTQTLIDAILEIGADRILFSTDWPFENIDHAADWFNATSIAEADRVKIGRTNARRLFKLDGA",1.3,1.0
"134 (protein, Dicamba decarboxylase variant) MAQGKVALEEHFAIPETLQDSAGFVPGDYWKELQHRLLDIQDTRLKLMDAHGIETMILSLAAPAVQAIPDRRKAIEIARRANDMLAEECAKRPDRFLAFAALPLQDPDAATEELQRCVNDLGFVGALVNGFSQEGDGQTPLYYDLPQYRPFWGEVEKLDVPFYLHPRNPLPQDSRIYDGHPWLLGPTWAFAQETAVHALRLMASGLFDEHPRLNIILGHLGEGLPYMMYRIDHRIAWVHEPPRYPAKRRLMDYFNENFHITTSGNFRTQTLIDAILEIGADRILFSTDWPFENIDHAADWFNATSIAEADRVKIGRTNARRLFKLDGA",1.5,1.1
"92 (protein, listed as Chitinophaga pinensis) MARIVTLEEHVSFPEMTALLPEEILKNRKQSGAALQMQEKLADITGERLTSMKAAGISMQVLSVENTDVYLLPDSLAPAFAAKYNDLLADKISSHSDAFAAFAMLPMTVPEAAADELERAVKTHGFCGAMIKGLINGVFLDAPKFAPVFACAEKLGVPLYIHPGIPPKEVIDAYYSNVGDTKGPNEAIACYGWGWHSETAIHILRLLAAGIFDKYPQLNIIIGHMGEMLPMMWERSNRVFQPGNNGKNQRTLIETFRKQLYITTSGIFTQPPLQIAIDTIGIDNILFSIDYPFSSNQMGIDFLTKAALPAEQLAKMAHGNADRILKF",1.7,
"93 (protein, listed as Mucilaginibacter paludis) MAKYGKHITINKNMRIVTLEEHISFPEMADQIPKAALGSFGRSEAMQRIAPKLADITGERLKSMDANGISMQVLSVDSSGVNLLSPQQGPAFATQYNDLIANRIAGFEKRFTAFAHLPMTAPFAAADELERAVKEHHFCGAMIRGLTGDQFLDHPQFAPIFERAQKLDVPIYLHPGLPPKGVADIYYSGLPNYSGMAEALACYGWGWHSETALHVLRLLFSGIFDQYPKLKLVIGHMGEMLPMMMARSEKAFKPGNGGANVRTLTDTFRSQVYLTTSGFFTQPPLKIALDTFGIDHVMFSVDYPFSTNEMGIEFLNEIDLPDEEVARIAHGNADKLLNLKA",1.6,
"94 (protein, listed as Bacillus thuringiensis) MANRGDSNMKSLVGVIMGSTSDWETMKYACDILDELNIPYEKKVVSAHRTPDYMFEYAETARERGLKVIIAGAGGAAHLPGMVAAKTNLPVIGVPVQSKALNGLDSLLSIVQMPGGVPVATVAIGKAGSTNAGLLAAQILGSFHDDIHDALELRREAIEKDVREGSELV",1.5,
"5 (protein, listed as Staphylococcus aureus) MAQNNMEANQMKSITFEEHYVIEDIQKETMNAISADPKGVPMKVMLEGLEKKTGFTNADELSHHDERIQFMNNQDVQIQVLSYGNGSPSNLVGQKAIELCQKANDQLANYIAQYPNRFVGFATLPINEPEAAAREFERCINDLGFKGALIMGRAQDGFLDQDKYDIIFKTAENLGVPIYLHPAPVNSDIYQSYYKGNYPEVTAATFACFGYGWHIDVGIHAIHLVLSGIFDRYPKLNMIIGHWGEFIPFFLERMDEALFAEHLNHPVSYYFKNNFYITPSGMLTKPQFDLVKKEAGIDRILYAADYPYIEPEKLGVFLDELGLTDEEKEKISYTNGAKLLGLSSNN",0.8,
